Data taken from the supplement of paper PMC7125110.
± gives the standard error. For some assays here: Variants at the floor of the assay were thinned out.

B1: glmS ribozyme (parent)
chain: AUAAAAGCGCCAGAACUACAGAAAUGUAGUUGACGAGGAGGAGGUUUAUCGAAUUUUCGGCGGAUGCCUCCAAA

Legend:
Settings in all cases: with glucosamine-6-phosphate
glucosamine-6-phosphate [1] = variants of: B1; experiment: kcat; higher = faster cleavage; RNA array
Method in brief: (§1)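 Barcoded ribozyme variants on sequenced MiSeq chips were transcribed in situ by E. coli RNA polymerase and followed at 37 °C through a hybridised Cy3 probe. Glucosamine-6-phosphate at 40 μM to 10 mM in HEPES/KCl/Mg(OAc)2 buffer was flowed in, and tiles were imaged over ~14 h. Signals were normalised to baseline and to non-cleaving reference variants, and per-tile medians were fit to one- or two-exponential decays to give kobs. Weighted Michaelis–Menten fits across concentrations gave kcat and KM.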

glucosamine-6-phosphate [2] = variants of: B1; experiment: self-cleavage kobs at 40 uM GlcN6P; higher = faster cleavage; RNA array
Method in brief: as §1

glucosamine-6-phosphate [3] = variants of: B1; experiment: self-cleavage kobs at 640 uM GlcN6P; higher = faster cleavage; RNA array
Method in brief: as §1

glucosamine-6-phosphate [4] = variants of: B1; experiment: KM; higher = weaker cofactor use; RNA array
Method in brief: as §1

glucosamine-6-phosphate [5] = variants of: B1; experiment: self-cleavage kobs at 160 uM GlcN6P; higher = faster cleavage; RNA array
Method in brief: as §1

glucosamine-6-phosphate [6] = variants of: B1; experiment: self-cleavage kobs at 10000 uM GlcN6P; higher = faster cleavage; RNA array
Method in brief: as §1

glucosamine-6-phosphate [7] = variants of: B1; experiment: self-cleavage kobs at 2500 uM GlcN6P; higher = faster cleavage; RNA array
Method in brief: as §1

Variant	kcat (glucosamine-6-phosphate [1])	self-cleavage kobs at 40 uM GlcN6P (glucosamine-6-phosphate [2])	self-cleavage kobs at 640 uM GlcN6P (glucosamine-6-phosphate [3])	KM (glucosamine-6-phosphate [4])	self-cleavage kobs at 160 uM GlcN6P (glucosamine-6-phosphate [5])	self-cleavage kobs at 10000 uM GlcN6P (glucosamine-6-phosphate [6])	self-cleavage kobs at 2500 uM GlcN6P (glucosamine-6-phosphate [7])
G9A G37C	< 1e-05 s⁻¹	< 1e-05 s⁻¹					
A6U U30C C68U	2.13e-05 ± 7.2e-06 s⁻¹		< 1e-05 s⁻¹				
C11G G43A	< 1e-05 s⁻¹	< 1e-05 s⁻¹	< 1e-05 s⁻¹	525 ± 190 µM	< 1e-05 s⁻¹	< 1e-05 s⁻¹	
A6U A15C A48U U69G	2.37e-05 ± 7.1e-06 s⁻¹	< 1e-05 s⁻¹					
G7A U47G C61U	1.24e-05 ± 4e-06 s⁻¹						
C10U A52U C68G	0.000101 ± 4.6e-05 s⁻¹						6.27e-05 ± 2.5e-05 s⁻¹
A6U C71U	0.000302 ± 1.3e-05 s⁻¹		5.53e-05 ± 9.2e-06 s⁻¹	2710 ± 230 µM		0.000235 ± 2.4e-05 s⁻¹	0.000149 ± 1.7e-05 s⁻¹
C11G G59U	0.000116 ± 2.9e-05 s⁻¹					9.62e-05 ± 1.5e-05 s⁻¹	0.000106 ± 2.1e-05 s⁻¹
A6U U30A A36C	< 1e-05 s⁻¹				< 1e-05 s⁻¹	< 1e-05 s⁻¹	
C10G C11G	< 1e-05 s⁻¹	< 1e-05 s⁻¹			< 1e-05 s⁻¹		
A6G A53U	0.000303 ± 3.8e-05 s⁻¹		6.78e-05 ± 1.6e-05 s⁻¹	1940 ± 560 µM		0.000241 ± 3.5e-05 s⁻¹	0.000191 ± 2.7e-05 s⁻¹
C11G G66A	< 1e-05 s⁻¹	< 1e-05 s⁻¹	< 1e-05 s⁻¹		< 1e-05 s⁻¹	< 1e-05 s⁻¹	
A6U G66A	0.000205 ± 1.7e-05 s⁻¹		3.28e-05 ± 1.3e-05 s⁻¹	3170 ± 600 µM		0.000155 ± 1.9e-05 s⁻¹	9.12e-05 ± 1.4e-05 s⁻¹
A6U G66U	< 1e-05 s⁻¹			1280 ± 630 µM			
C10G A12U	8.15e-05 ± 3.2e-05 s⁻¹						
A6U G60A	< 1e-05 s⁻¹		< 1e-05 s⁻¹				
A6U G41U	4.92e-05 ± 3.2e-06 s⁻¹						
C11U A14G	0.0102 ± 0.0018 s⁻¹	0.000229 ± 4e-05 s⁻¹	0.00207 ± 0.0003 s⁻¹	2230 ± 580 µM	0.000583 ± 0.00013 s⁻¹	0.00811 ± 0.001 s⁻¹	0.00674 ± 0.0012 s⁻¹
C10U G59U	2.6e-05 ± 1.8e-06 s⁻¹			2000 ± 700 µM		2.16e-05 ± 1.1e-05 s⁻¹	
C11A C68G	< 1e-05 s⁻¹						
C11A U45A	0.000361 ± 6.9e-05 s⁻¹		5.63e-05 ± 1.2e-05 s⁻¹	3010 ± 1100 µM		0.000262 ± 3.8e-05 s⁻¹	0.000214 ± 3.6e-05 s⁻¹
C10G C58U	< 1e-05 s⁻¹	< 1e-05 s⁻¹	< 1e-05 s⁻¹			< 1e-05 s⁻¹	

Variant	kcat (glucosamine-6-phosphate [1])	self-cleavage kobs at 40 uM GlcN6P (glucosamine-6-phosphate [2])	self-cleavage kobs at 640 uM GlcN6P (glucosamine-6-phosphate [3])	KM (glucosamine-6-phosphate [4])	self-cleavage kobs at 160 uM GlcN6P (glucosamine-6-phosphate [5])	self-cleavage kobs at 10000 uM GlcN6P (glucosamine-6-phosphate [6])	self-cleavage kobs at 2500 uM GlcN6P (glucosamine-6-phosphate [7])
C10G G59U	3.49e-05 ± 2.3e-06 s⁻¹	< 1e-05 s⁻¹		1050 ± 290 µM		3.25e-05 ± 8.1e-06 s⁻¹	2.34e-05 ± 6.6e-06 s⁻¹
C8G G60A	< 1e-05 s⁻¹	< 1e-05 s⁻¹				< 1e-05 s⁻¹	
C11A A12U U45G U55A C70U	0.00104 ± 0.00013 s⁻¹					0.000245 ± 5.6e-05 s⁻¹	7.5e-05 ± 3.1e-05 s⁻¹
A6G U54G	0.000277 ± 1.2e-05 s⁻¹		9.48e-05 ± 1.7e-05 s⁻¹	1230 ± 140 µM		0.000251 ± 3.1e-05 s⁻¹	0.000179 ± 2.9e-05 s⁻¹
A6U G29A	3.18e-05 ± 3.2e-06 s⁻¹	< 1e-05 s⁻¹				2.9e-05 ± 9.8e-06 s⁻¹	2.95e-05 ± 1.3e-05 s⁻¹
A6U U55C	0.000167 ± 2.1e-06 s⁻¹		5.6e-05 ± 1.6e-05 s⁻¹	1250 ± 45 µM		0.000148 ± 2.5e-05 s⁻¹	0.000112 ± 1.5e-05 s⁻¹
G9C C61G	0.00838 ± 0.0021 s⁻¹	9.12e-05 ± 1.6e-05 s⁻¹	0.000828 ± 0.00017 s⁻¹	4330 ± 1400 µM	0.000309 ± 5.7e-05 s⁻¹	0.00575 ± 0.00085 s⁻¹	0.00371 ± 0.00066 s⁻¹
C10A C61G	< 1e-05 s⁻¹						
G7U A53C C58A U69G C70U	0.000741 ± 0.00023 s⁻¹	7.41e-05 ± 3.3e-05 s⁻¹					0.000875 ± 0.00036 s⁻¹
C11A G62A	1.14e-05 ± 2e-06 s⁻¹						
C8U C67A	< 1e-05 s⁻¹		< 1e-05 s⁻¹				
C10G C61A	1.32e-05 ± 9.6e-07 s⁻¹	< 1e-05 s⁻¹	< 1e-05 s⁻¹	180 ± 67 µM		< 1e-05 s⁻¹	
C11A G60A	< 1e-05 s⁻¹						
C10U A14G C68G	3.32e-05 ± 9.4e-06 s⁻¹						
C10A U55G	< 1e-05 s⁻¹				< 1e-05 s⁻¹		
C11A U57C	< 1e-05 s⁻¹		< 1e-05 s⁻¹				
C11A U57G	< 1e-05 s⁻¹				< 1e-05 s⁻¹		
C8U G35A U45A U69G	1.02e-05 ± 2.7e-06 s⁻¹						
A6G C68U	0.000115 ± 2.9e-06 s⁻¹		5.56e-05 ± 1.1e-05 s⁻¹	728 ± 79 µM		0.000107 ± 1e-05 s⁻¹	8.68e-05 ± 1.5e-05 s⁻¹
A6U U65A	< 1e-05 s⁻¹						
A6U U65G	3.43e-05 ± 1e-05 s⁻¹	< 1e-05 s⁻¹					4.32e-05 ± 1.3e-05 s⁻¹
C11A A14G U65G	0.000152 ± 6.2e-06 s⁻¹		5.21e-05 ± 1.7e-05 s⁻¹	1370 ± 200 µM		0.000135 ± 1.7e-05 s⁻¹	9.32e-05 ± 2e-05 s⁻¹
